Experiments:
MS2 coat protein [1] = assay: apparent KD of MS2 coat protein, switch OFF state (with FMN for OFF switches, without FMN for ON switches); designed switch direction (-1 OFF switch, 1 ON switch): 1; higher = weaker reporter binding; conditions: FMN input: 0 or 200 uM; Eterna round: R93 (includes R88 designs)
Summary of the method: (§1)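 Designed RNA switches were transcribed on-chip from Illumina sequencing clusters. They were then titrated with SNAP-549-labelled MS2 coat protein (twofold steps, 0.7 or 1.5 nM to 3 µM; 0.8–1.5 h to 10–20 min per step) in 100 mM Tris-HCl pH 7.5, 80 mM KCl, 4 mM MgCl2, without or with constant ligand. Apparent KD is the per-design median of normalised cluster binding-curve fits.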

MS2 coat protein [2] = assay: apparent KD of MS2 coat protein, switch ON state; designed switch direction (-1 OFF switch, 1 ON switch): 1; higher = weaker reporter binding; conditions: FMN input: 0 or 200 uM; Eterna round: R93 (includes R88 designs)
Summary of the method: as §1

Sequence	apparent KD of MS2 coat protein (MS2 coat protein [1])	apparent KD of MS2 coat protein (MS2 coat protein [2])
AAUCCAAAUAGUUAGGAUAUGGGAAUUAAGACAUGAGGAUCACCCAUGUAAUUAAAACAAGUUAACCAGAAGGGACAGGGUGAAA [JR_SS002_Sub207]	112 nM	160 nM
ACCCGCAGCCGUCAGGAUAUGUUCGCGUCAACAUGAGGAUCACCCAUGUGUGACAAGAAGUACACGCAGAAGGGAUCAAUGCGGG [Bienri]	16.4 nM	13.7 nM
AGAAAACAUGAGGAUCACCCAUGUAGAAAUAUGGGAGGAUAUACAAAGACGAAAGUCAAAGUAGAAGGCCUAAAGA [Mat - Same State 1 - Eli mod - 33]	71.9 nM	19 nM
AGAAAACAUGAGGAUCACCCAUGUAGAAAUAUGGGAGGAUAUACAAAGACGAAAGUCGAGGUAGAAGGCCUAAAGA [Mat - Same State 1 - Meechl mod - D122]	103 nM	21.7 nM
AGAAAACAUGAGGAUCACCCAUGUAGAAAUAUGGGAGGAUAUACAAGGACGAAAGUCAAGGUAGAAGGCCUAAAGA [Mat - Same State 1 - Meechl mod - D127]	88.4 nM	22.8 nM
AGAAAACAUGAGGAUCACCCAUGUAGAAAUAUGGGAGGAUAUACGAGGACGAAAGUCAAAGUAGAAGGCCUAAAGA [Mat - Same State 1 - Meechl mod - D125]	71.2 nM	21 nM
AGAAAACAUGAGGAUCACCCAUGUGACAAUAUGGGAGGAUAUACGAACACGAAAGUCGAAGUAGAAGGCCUAAAGA [Garnet 53]	75.7 nM	26.3 nM
AGAAAUAAAACACAGGAUAUGAAAAAGAAAACAUGAGGAUCACCCAUGUAAAAGAAAAAUAAAAAUCAGAAGGGUGAAAAUAAAG [Put G segment last in JL design (80%)]	205 nM	59 nM
AGAAAUAAAAGAGAGGAUAUCCAAAAGAAAACAUGAGGAUCACCCAUGUGAAAGAAAAGAAAAUGGGAGAAGGCUCAAAAUAAGA [Topaz 18]	55.4 nM	22.5 nM
AGAAAUAAAGCUGAGGAUAUGGGAAAAUUCACAUGAGGAUCACCCAUGUAAAAGAAAAUAAAAAACCAGAAGGCAGCAAAUAAGA [Designing denovo 6]	49.8 nM	27.6 nM
AGACAUAAAAGAGAGGAUAUCCAAAAGAAAACAUGAGGAUCACCCAUGUAAAAGAAAAUAAAAUGGGAGAAGGCUCACAUACAGA [Topaz 35]	50.4 nM	19 nM
AGACAUAACAGAGAGGAUAUCCAAUAGAAAACAUGAGGAUCACCCAUGUGAAAGAAAAUAAAAUGGGAGAAGGCUCACAUACAGA [Topaz 39]	23 nM	5.57 nM
AGCACGUGAUUGGAGGAUAUGUAGUAAGCAACAUGAGGAUCACCCAUGUCUGAGGCUGAAAACCAGCAGAAGGCCGAUACAACCA [SS2-1.6]	22.7 nM	15.3 nM
AGGAAACAUGAGGAUCACCCAUGUAAAAAUAACACAGGAUAUGGAAACACGAAAGUGAAACCAGAAGGGUGAAAAG [77%, Mat - Mod of Eli, 16]	26.1 nM	17.8 nM
AGGAAACAUGAGGAUCACCCAUGUGUAAAAAAUACAGGAUAUGGAAACACGAAAGUGAAACCAGAAGGGUAAAAAA [77%, Mat - Mod of Eli, 31]	19 nM	13.4 nM
AGGAGACAUGAGGAUCACCCAUGUGAGAAGAGGCGAGGAUAUCGAAAGAAAGAAGAGAAACGAGAAGGCGCGAGAU [salish99-SS1-021]	38.7 nM	25.1 nM
AUAAAACAUGAGGAUCACCCAUGUAAUAAGAACCGAGGAUAUGGAAAUAAUAAUAAUAAACCAGAAGGUGGUGAUC [Meechl MS2 SS1]	105 nM	110 nM
AUAAAAUAAAGUCAGGAUAUCCAUAAUAAAACAUGAGGAUCACCCAUGUUAAAAAAAAGAUCAUGGGAGAAGGGACAAAAUAAAU [SS2 M 33]	57.6 nM	28.6 nM
AUAACACAUGAGGAUCACCCAUGUAGAAACAAGUCAGGAUAUGCAACCUCAUGAAAUAAAGCAGAAGGGACAAUAA [SS 1 Tesla 4]	88 nM	26.4 nM
AUAAUAUUAAGCUAGGAUAUACUAAAGUAAACAUGAGGAUCACCCAUGUAAAAAAAAAAACUCAUGUAGAAGGAGCAUAAAUAAA [moonwalk 9]	15 nM	12.2 nM
AUAUGAGCUAUGGAGGAUAUCCACAAUAAAACAUGAGGAUCACCCAUGUAAGAAAGAAAAGAAUGGGAGAAGGCCAUAGCUCAAU [SS 2 M45]	17.5 nM	7.54 nM
AUAUGAUCAUGUGAGGAUAUCCAUAAUAAAACAUGAGGAUCACCCAUGUAUAGAUAAUAAUAAUGGGAGAAGGCACAUGAUCAAU [SS 2 M41]	17.9 nM	21.6 nM
